Consider 39 variants from the RNAGym collection of RNA variant scans (doi:10.7554/elife.80360).

To fix the notation:
B1: CPEB3 Ribozyme (parent)
chain: GGGGGCCACAGCAGAAGCGUUCACGUCGCGGCCCCUGUCAGAUUCUGGUGAAUCUGCGAAUUCUGCUGU

Variants of B1 are the subject of the data set. Nature of the data set: self-cleavage, relative activity (ratio to wild type); higher = more cleavage; co-transcriptional.
On to GGGGGCCACAGCAGAAGCGUUCACGUCGCGGCCCCUGUGAGAUUCUGGUGAAUCUGCGAACUCUGCUGU [C39G U61C], for which the self-cleavage is 0.394.
For the variant GGGGGCCACAGCAGAAGCGUUCACGUCGCGGCCCCUGUGAGAUUCCGGUGAAUCUGCGAAUUCUGCUGU [C39G U46C], the self-cleavage was found to be 0.903.
Under GGGGGCCACAGCAGAAGCGUUCACGUCGCGGCCCCUGUAAGAUUCUGGUGAAUCUGCCAAUUCUGCUGU [C39A G58C] stands 0.907.
Under GGGGGCCACAGCAGAAGCGUUCACGUCGCGGCCCCUGUGAAAUUCUGGUGAAUCUGCGAAUUCUGCUGU [C39G G41A] stands 0.486; under GGGGGCCACAGCAGAAGCGUUCACGUCGCGGCCCCUGUAAGAUUCUGGUGAAUCUGCGAAUUCUGCUGC [C39A U69C], 1.01.
Under GGGGGCCACAGCAGAAGCGUUCACGUCGCGGCCCCUGUAAGAUUCUGGUGAAUCUGCGAAUUCUGCUGA [C39A U69A] stands 0.908; under GGGGGCCACAGCAGAAGCGUUCACGUCGCGGCCCCUGUGAGAUUCUGGUGAAUCUGCGAAUUCAGCUGU [C39G U64A], 0.636; under GGGGGCCACAGCAGAAGCGUUCACGUCGCGGCCCCUGUGAGAUUCUGGGGAAUCUGCGAAUUCUGCUGU [C39G U49G], 0.994.
As to GGGGGCCACAGCAGAAGCGUUCACGUCGCGGCCCCUGUAAGAUUCUGGUGAAUCUGCGAAUUCAGCUGU [C39A U64A], the self-cleavage is 0.467.
The result for GGGGGCCACAGCAGAAGCGUUCACGUCGCGGCCCCUGUAAGAUUCUGGUGAAUCUGCGAAUUCGGCUGU [C39A U64G] reads 0.61; that for GGGGGCCACAGCAGAAGCGUUCACGUCGCGGCCCCUGUGAGAUUCUGGUGAAUCUGCGAAUUCUGCUUU [C39G G68U], 0.988.
Under GGGGGCCACAGCAGAAGCGUUCACGUCGCGGCCCCUGUGAGAUUCUGCUGAAUCUGCGAAUUCUGCUGU [C39G G48C] stands 0.945; under GGGGGCCACAGCAGAAGCGUUCACGUCGCGGCCCCUGUAAGAUUCUGGUGAAUCUGCGAAAUCUGCUGU [C39A U61A], 0.601; under GGGGGCCACAGCAGAAGCGUUCACGUCGCGGCCCCUGUAAGAUUCUGGUGAAUCUGCGAAUUCUGCUAU [C39A G68A], 0.925.
Take GGGGGCCACAGCAGAAGCGUUCACGUCGCGGCCCCUGUGGGAUUCUGGUGAAUCUGCGAAUUCUGCUGU [C39G A40G]: the self-cleavage worked out at 0.812.
With GGGGGCCACAGCAGAAGCGUUCACGUCGCGGCCCCUGUGAGAUUCUGGUGAAUCUGCGGAUUCUGCUGU [C39G A59G], the self-cleavage is 0.947.
Under GGGGGCCACAGCAGAAGCGUUCACGUCGCGGCCCCUGUAAGAGUCUGGUGAAUCUGCGAAUUCUGCUGU [C39A U43G] stands 0.295; under GGGGGCCACAGCAGAAGCGUUCACGUCGCGGCCCCUGUGAGAUUCUGGUGAAUCUGCGAAUUGUGCUGU [C39G C63G], 0.513; under GGGGGCCACAGCAGAAGCGUUCACGUCGCGGCCCCUGUAAGAUUCUGGGGAAUCUGCGAAUUCUGCUGU [C39A U49G], 0.928.
The result for GGGGGCCACAGCAGAAGCGUUCACGUCGCGGCCCCUGUAAGAUUCUGGCGAAUCUGCGAAUUCUGCUGU [C39A U49C] reads 0.811; that for GGGGGCCACAGCAGAAGCGUUCACGUCGCGGCCCCUGUAAGAUUCAGGUGAAUCUGCGAAUUCUGCUGU [C39A U46A], 0.925.
Under GGGGGCCACAGCAGAAGCGUUCACGUCGCGGCCCCUGUGAGAUUCUGGUGAAUCUGUGAAUUCUGCUGU [C39G C57U] stands 0.327.
In the case of GGGGGCCACAGCAGAAGCGUUCACGUCGCGGCCCCUGUGAGAUUCUGGUGAAUCUGGGAAUUCUGCUGU [C39G C57G], the self-cleavage was found to be 0.361.
Under GGGGGCCACAGCAGAAGCGUUCACGUCGCGGCCCCUGUGAGAUUCUGGUGAAUCUGAGAAUUCUGCUGU [C39G C57A] stands 0.303; under GGGGGCCACAGCAGAAGCGUUCACGUCGCGGCCCCUGUGAGAUUCUGGUGAAUCCGCGAAUUCUGCUGU [C39G U55C], 0.693; under GGGGGCCACAGCAGAAGCGUUCACGUCGCGGCCCCUGUGAGAUUCUGGUGAAUCGGCGAAUUCUGCUGU [C39G U55G], 0.863.
Under GGGGGCCACAGCAGAAGCGUUCACGUCGCGGCCCCUGUAAGAUUCUGUUGAAUCUGCGAAUUCUGCUGU [C39A G48U] stands 0.903.
The result for GGGGGCCACAGCAGAAGCGUUCACGUCGCGGCCCCUGUAAGAUUCUGCUGAAUCUGCGAAUUCUGCUGU [C39A G48C] reads 0.912; that for GGGGGCCACAGCAGAAGCGUUCACGUCGCGGCCCCUGUAAGAUUCUGGUGAAUCAGCGAAUUCUGCUGU [C39A U55A], 0.825.
Take GGGGGCCACAGCAGAAGCGUUCACGUCGCGGCCCCUGUAAGAUUCUCGUGAAUCUGCGAAUUCUGCUGU [C39A G47C]: the self-cleavage was determined as 0.945.
Under GGGGGCCACAGCAGAAGCGUUCACGUCGCGGCCCCUGUGAGAUUCUGGUGAAUCUGCCAAUUCUGCUGU [C39G G58C] stands 0.929.
As to GGGGGCCACAGCAGAAGCGUUCACGUCGCGGCCCCUGUGAGACUCUGGUGAAUCUGCGAAUUCUGCUGU [C39G U43C], the self-cleavage turned out to be 0.75.
Take GGGGGCCACAGCAGAAGCGUUCACGUCGCGGCCCCUGUGAGAUUCUGGUGAAUCUGCGAAUUCUGAUGU [C39G C66A]: the self-cleavage was 0.531.
With GGGGGCCACAGCAGAAGCGUUCACGUCGCGGCCCCUGUAAGAUUCUGGUGAAUCUGCGAAUGCUGCUGU [C39A U62G], the self-cleavage was found to be 0.428.
The result for GGGGGCCACAGCAGAAGCGUUCACGUCGCGGCCCCUGUAAGAUUCUGGUGAAUCUGCGAAUCCUGCUGU [C39A U62C] reads 0.595; that for GGGGGCCACAGCAGAAGCGUUCACGUCGCGGCCCCUGUGAGAUUCUGGUGAAUCUGCGAAUUCUUCUGU [C39G G65U], 0.442.
Under GGGGGCCACAGCAGAAGCGUUCACGUCGCGGCCCCUGUGAGAUUCUGGUGAAUCUGCGAAUUCUCCUGU [C39G G65C] stands 0.297.
Under GGGGGCCACAGCAGAAGCGUUCACGUCGCGGCCCCUGUGAGAUUCUGGUUAAUCUGCGAAUUCUGCUGU [C39G G50U] stands 0.957; under GGGGGCCACAGCAGAAGCGUUCACGUCGCGGCCCCUGUGAGAUUCUGGUAAAUCUGCGAAUUCUGCUGU [C39G G50A], 0.962.
